Biological target: BMP-2
Experiment: cell-based or functional assay

In the case of “Recombinant Mouse Noggin/Fc Chimera protein (R&D Systems) (from UniProt P97466 28-232) (Fc fusion)”, the appearance of beating EBs (myocardial differentiation-inducing effect of Noggin protein at 150 ng/mL on ES cells, floating culture) is reported as > 5 ng/mL.

Source: US20070134215A1
